The values that follow come from publication PMC11145777.

The target in the experiment is native H3 (human (endogenous in HeLa)) (UniProt P68431). As to the kind of experiment: co-IP; native (unfixed) ChIP on mono-nucleosomes: native CpA from untransfected HeLa, GFP-CpA and HA-CpA from transfected HeLa, Western for H1.5 (three antibodies) and H2A; H3 ChIP done sequentially after the native CpA ChIP.

For “linker histone H1.5 (from UniProt P16401 1-226) (natural protein)”, the fold affinity against native CpA was 13 fold.
